Test system: T1, His6-WblI (Streptomyces lividans TK24), ORF:202723bd
T1 sequence: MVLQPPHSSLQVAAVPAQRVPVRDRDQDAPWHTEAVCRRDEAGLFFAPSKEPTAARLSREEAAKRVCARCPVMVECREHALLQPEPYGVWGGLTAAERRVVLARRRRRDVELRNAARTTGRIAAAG
Assay: EMSA
Conditions: 10 mM Tris-HCl pH 7.5, 50 mM KCl, 1 mM DTT, 20 µl, room temperature 15 min, 50 pmol probe, 5% native PAGE in 45 mM Tris-HCl pH 8.3, 45 mM boric acid

## AGCCAGTGGCGATAAGGTTCCGTCCGGTCCGGGGCCGTCCTCGGGCAGTAACGCCGACGGCGGGGCCGTGGCCCTGTCCGGCTCGTCGGCTTCAACGGAACTCATGGCGTCCCCCGGGTCCTCGACTATTGGTCCACGAACGACCACCGTTCTACAATGGAACGGTGGTCGCGTCAAGAAACGGTGGCCCGTTCATGCCATACGATGAGGAGCACGTGTCGCTTATCGCCACTGGCT (double strand) [actII-1/actII-2 intergenic region]
  binding: binds

Reference: article PMC5373594
